The values that follow come from patent US20030186877A1 (BRIGHAM AND WOMEN S HOSPITAL, published 2003).

Sequences and labels used below:
B1: Boc-Aib-Ala-Leu-Aib-Ala-Leu-Aib-Ala-Leu-Aib-O-methylester (peptide)
peptide: Boc-[Aib]AL[Aib]AL[Aib]AL[Aib]-OMe
SMILES: COC(=O)C(C)(C)NC(=O)[C@H](CC(C)C)NC(=O)[C@H](C)NC(=O)C(C)(C)NC(=O)[C@H](CC(C)C)NC(=O)[C@H](C)NC(=O)C(C)(C)NC(=O)[C@H](CC(C)C)NC(=O)[C@H](C)NC(=O)C(C)(C)NC(=O)OC(C)(C)C

Square brackets hold non-standard residues; d marks the D form. * marks the point of attachment. dBpa = N[C@H](Cc1ccc(C(=O)c2ccccc2)cc1)C(=O)O; Boc = CC(C)(C)OC(=O)*; Aib = CC(C)(N)C(=O)O

For one assay, the target named is γ-secretase. Put plainly: cell-based or functional assay.
Regarding B1, the “IC50 of blocking Aβ production in APP-transfected cells” value was determined as 2 µM.
Boc-[dV]G[Aib][dV][dV][dBpa][Aib][dThr(OBz)][dV][Aib]-OMe [Boc-D-Val-Gly-Aib-D-Val-D-Val-D-BPA-Aib-D-Thr(OBz)-D-Val-Aib-OMe]: the “IC50 in the same cell-based assay using CHO cells stably transfected with human APP (production of total Aβ)” value came to 100 nM.

Another assay deals with γ-secretase. Put plainly: cell-based or functional assay. This is another data set of the same source.
As for Boc-A[Thr(OBz)][Aib]IV[Aib]-OMe [Boc-Ala-Thr(OBz)-Aib-Ile-Val-Aib-OMe], the “IC50: concentration of compound that reduced production of total Aβ by 50% in a cell-based assay using CHO cells stably transfected with human APP” value was 25 µM.
Same read-out and setting: next, Boc-G[Aib]VVI[Aib][Thr(OBz)]V[Aib]-OMe [Boc-Gly-Aib-Val-Val-Ile-Aib-Thr(OBz)-Val-Aib-OMe]: 3 µM; Boc-VI[Aib][Thr(OBz)]V[Aib]-OMe [Boc-Val-Ile-Aib-Thr(OBz)-Val-Aib-OMe]: 12 µM.
Turning to Boc-IA[Thr(OBz)][Aib]IV[Aib]-OMe [Boc-Ile-Ala-Thr(OBz)-Aib-Ile-Val-Aib-OMe], the “IC50: concentration of compound that reduced production of total Aβ by 50% in a cell-based assay using CHO cells stably transfected with human APP” value worked out at 15 µM.
As for Boc-[Aib]VVI[Aib][Thr(OBz)]V[Aib]-OMe [Boc-Aib-Val-Val-Ile-Aib-Thr(OBz)-Val-Aib-OMe], the “IC50: concentration of compound that reduced production of total Aβ by 50% in a cell-based assay using CHO cells stably transfected with human APP” value was 6 µM.
With Boc-[Aib]IA[Thr(OBz)][Aib]IV[Aib]-OMe [Boc-Aib-Ile-Ala-Thr(OBz)-Aib-Ile-Val-Aib-OMe], the “IC50: concentration of compound that reduced production of total Aβ by 50% in a cell-based assay using CHO cells stably transfected with human APP” value amounted to 10 µM.
In the case of Boc-GV[Aib]IA[Thr(OBz)][Aib]IV[Aib]-OMe [Boc-Gly-Val-Aib-Ile-Ala-Thr(OBz)-Aib-Ile-Val-Aib-OMe], the “IC50: concentration of compound that reduced production of total Aβ by 50% in a cell-based assay using CHO cells stably transfected with human APP” value stood at 5 µM.
Regarding Boc-VVI[Aib][Thr(OBz)]V[Aib]-OMe [Boc-Val-Val-Ile-Aib-Thr(OBz)-Val-Aib-OMe], the “IC50: concentration of compound that reduced production of total Aβ by 50% in a cell-based assay using CHO cells stably transfected with human APP” value is 6 µM.
For Boc-V[Aib]IA[Thr(OBz)][Aib]IV[Aib]-OMe [Boc-Val-Aib-Ile-Ala-Thr(OBz)-Aib-Ile-Val-Aib-OMe], the “IC50: concentration of compound that reduced production of total Aβ by 50% in a cell-based assay using CHO cells stably transfected with human APP” value came to 2 µM.
As to Boc-VG[Aib]VVI[Aib][Thr(OBz)]V[Aib]-OMe [Boc-Val-Gly-Aib-Val-Val-Ile-Aib-Thr(OBz)-Val-Aib-OMe], the “IC50: concentration of compound that reduced production of total Aβ by 50% in a cell-based assay using CHO cells stably transfected with human APP” value stood at 3 µM.
